Test results published in patent US11306156.

Assays:
[1] = molecular target: tissue factor (TF) antigen (UniProt P13726); assay: SPR, Fab captured on anti-penta-His surface, TF as analyte, 1:1 fit; Fab batch C
[2] = molecular target: tissue factor (TF) antigen (UniProt P13726); assay: SPR, Fab captured on anti-penta-His surface, TF as analyte, 1:1 fit; Fab batch C; against wild-type D3H44 Fab
[3] = molecular target: tissue factor (TF) antigen (UniProt P13726); assay: SPR, Fab captured on anti-penta-His surface, TF as analyte, 1:1 fit; estimated value, from a Fab that differs only in the L chain tag
[4] = molecular target: tissue factor (TF) antigen (UniProt P13726); assay: SPR, Fab captured on anti-penta-His surface, TF as analyte, 1:1 fit; estimated value, from a Fab that differs only in the L chain tag; against wild-type D3H44 Fab
[5] = molecular target: D3H44 light chain Q124E_Q160E_T180E (Kabat) with N-terminal HA or FLAG tag; assay: LCCA, SPR read-out of light-chain tags; light-chain DNA 1:3 normalized to 1:1; competing light chain m16
[6] = molecular target: D3H44 light chain Q124K_T178R (Kabat) with N-terminal HA or FLAG tag; assay: LCCA, SPR read-out of light-chain tags; light-chain DNA 1:3 normalized to 1:1; competing light chain m17
[7] = molecular target: D3H44 light chain Q124R_Q160K_T178R (Kabat) with N-terminal HA or FLAG tag; assay: as above
[8] = molecular target: D3H44 light chain T178R (Kabat) with N-terminal HA or FLAG tag; assay: as above
[9] = molecular target: D3H44 light chain Q124E_Q160E_T180E (Kabat) with N-terminal HA or FLAG tag; assay: LCCA, SPR read-out of light-chain tags; light-chain DNA 1:3 normalized to 1:1; competing light chain m18
[10] = molecular target: D3H44 light chain Q124E_T180E (Kabat) with N-terminal HA or FLAG tag; assay: as above
[11] = molecular target: D3H44 light chain T178R (Kabat) with N-terminal HA or FLAG tag; assay: LCCA, SPR read-out of light-chain tags; light-chain DNA 1:3 normalized to 1:1; competing light chain m19
[12] = molecular target: D3H44 light chain Q124E_Q160E_T180E (Kabat) with N-terminal HA or FLAG tag; assay: LCCA, SPR read-out of light-chain tags; light-chain DNA 1:3 normalized to 1:1; competing light chain m20
[13] = molecular target: D3H44 light chain Q124E_S131T_T178F_T180E (Kabat) with N-terminal HA or FLAG tag; assay: as above
[14] = molecular target: D3H44 light chain Q124R_Q160K_T178R (Kabat) with N-terminal HA or FLAG tag; assay: LCCA, SPR read-out of light-chain tags; light-chain DNA 1:3 normalized to 1:1; competing light chain m22
[15] = molecular target: tissue factor (TF) antigen (UniProt P13726); assay: SPR, Fab captured on anti-penta-His, TF as analyte, 1:1 fit; batch C (+)
[16] = molecular target: tissue factor (TF) antigen (UniProt P13726); assay: vs wild-type D3H44 Fab (KD 0.157 nM); SPR, Fab captured on anti-penta-His, TF as analyte; batch C (+)
[17] = molecular target: D3H44 light chain Q124E_V133G_S176D_T178E_T180E (Kabat), N-terminal HA or FLAG tag; assay: LCCA co-expression, competing light chain m24, L1:L2 DNA 1:3 normalized to 1:1, SPR tag read-out
[18] = molecular target: D3H44 light chain Q124K_V133G_S176R_T178K (Kabat), N-terminal HA or FLAG tag; assay: LCCA co-expression, competing light chain m25, L1:L2 DNA 1:3 normalized to 1:1, SPR tag read-out
[19] = molecular target: D3H44 light chain Q124E_T180E, N-terminal HA or FLAG tag; assay: LCCA, L1:L2 DNA 1:3, SPR of light chain tags; competing light chain m10
[20] = molecular target: D3H44 light chain Q124R_T178K, N-terminal HA or FLAG tag; assay: LCCA, L1:L2 DNA 1:3, SPR of light chain tags; competing light chain m11
[21] = molecular target: D3H44 light chain Q124R_T178R, N-terminal HA or FLAG tag; assay: as above
[22] = molecular target: D3H44 light chain Q124E_Q160E_T180E, N-terminal HA or FLAG tag; assay: LCCA, L1:L2 DNA 1:3, SPR of light chain tags; competing light chain m12
[23] = molecular target: D3H44 light chain Q124R_Q160K_T178R, N-terminal HA or FLAG tag; assay: LCCA, L1:L2 DNA 1:3, SPR of light chain tags; competing light chain m13
[24] = molecular target: D3H44 light chain T178R, N-terminal HA or FLAG tag; assay: as above
[25] = molecular target: D3H44 light chain Q124E_T180E, N-terminal HA or FLAG tag; assay: LCCA, L1:L2 DNA 1:3, SPR of light chain tags; competing light chain m14
[26] = molecular target: D3H44 light chain Q124E_Q160E_T180E, N-terminal HA or FLAG tag; assay: LCCA, L1:L2 DNA 1:3, SPR of light chain tags; competing light chain m16
[27] = molecular target: D3H44 light chain Q124R_T178K, N-terminal HA or FLAG tag; assay: LCCA, L1:L2 DNA 1:9, SPR of light chain tags; competing light chain m11
[28] = molecular target: D3H44 light chain Q124R_T178R, N-terminal HA or FLAG tag; assay: as above
[29] = molecular target: D3H44 light chain Q124E_Q160E_T180E, N-terminal HA or FLAG tag; assay: LCCA, L1:L2 DNA 1:9, SPR of light chain tags; competing light chain m12
[30] = molecular target: D3H44 light chain Q124E_Q160E_T180E, N-terminal HA or FLAG tag; assay: LCCA, L1:L2 DNA 1:9, SPR of light chain tags; competing light chain m16
[31] = molecular target: D3H44 light chain Q124E_V133W_T180E, N-terminal HA or FLAG tag; assay: LCCA, SPR of light chain tags, L1:L2 DNA 1:3 norm. to 1:1; other light chain m14
[32] = molecular target: D3H44 light chain Q124R_T178R, N-terminal HA or FLAG tag; assay: LCCA, SPR of light chain tags, L1:L2 DNA 1:3 norm. to 1:1; other light chain m25
[33] = molecular target: D3H44 light chain Q124E_S176L_T180E, N-terminal HA or FLAG tag; assay: LCCA, SPR of light chain tags, L1:L2 DNA 1:3 norm. to 1:1; other light chain m14
[34] = molecular target: D3H44 light chain Q124R_T178R, N-terminal HA or FLAG tag; assay: LCCA, SPR of light chain tags, L1:L2 DNA 1:3 norm. to 1:1; other light chain m16
[35] = molecular target: D3H44 light chain Q124E_T178E_T180E, N-terminal HA or FLAG tag; assay: LCCA, SPR of light chain tags, L1:L2 DNA 1:3 norm. to 1:1; other light chain m17
[36] = molecular target: D3H44 light chain Q124R_Q160K_T178R, N-terminal HA or FLAG tag; assay: LCCA, SPR of light chain tags, L1:L2 DNA 1:3 norm. to 1:1; other light chain m21
[37] = molecular target: D3H44 light chain Q124E_T178E_T180E, N-terminal HA or FLAG tag; assay: LCCA, SPR of light chain tags, L1:L2 DNA 1:9 norm. to 1:1; other light chain m17
[38] = molecular target: D3H44 light chain Q124R_Q160K_T178R, N-terminal HA or FLAG tag; assay: LCCA, SPR of light chain tags, L1:L2 DNA 1:9 norm. to 1:1; other light chain m21
[39] = molecular target: tissue factor (TF) antigen (UniProt P13726); assay: SPR KD against wild-type D3H44 Fab (reference KD 0.157 nM)
[40] = molecular target: tissue factor (TF) antigen (UniProt P13726); assay: SPR (ProteOn), Fab captured on anti-penta-His, TF analyte, 1:1 fit
[41] = molecular target: tissue factor (TF) antigen (UniProt P13726); assay: SPR KD against wild-type D3H44 Fab; * estimated value (estimated wild-type KD […])
[42] = molecular target: tissue factor (TF) antigen (UniProt P13726); assay: SPR (ProteOn), Fab captured on anti-penta-His, TF analyte, 1:1 fit; * estimated from a Fab differing only in the L chain tag

D3H44 H1L1 Fab heterodimer of LCCA Set # 9626 (H1 L143E_K145T_Q179D; L1 Q124R_T178K)
Kd [1]: 0.12 nM
change in median KD compared to wild type, -(log(KD design)-log(KD wt)) [2]: 0.12
Kd [3]: 0.12 nM
change in median KD compared to wild type, -(log(KD design)-log(KD wt)) [4]: 0.12

D3H44 Fab heavy chain S186K (Kabat) with C-terminal ABD2-His6 tag
H2L2:H2L1 normalized median ratio [5]: 83%
H2L2:H2L1 normalized median ratio [6]: 17%
H2L2:H2L1 normalized median ratio [7]: 19%
H2L2:H2L1 normalized median ratio [8]: 9%
H2L2:H2L1 normalized median ratio [9]: 91%
H2L2:H2L1 normalized median ratio [10]: 96%
H2L2:H2L1 normalized median ratio [11]: 4%
H2L2:H2L1 normalized median ratio [12]: 81%
H2L2:H2L1 normalized median ratio [13]: 96%
H2L2:H2L1 normalized median ratio [14]: 4%

H1L1 Fab heterodimer of LCCA set 9620 (D3H44 Fab, H1 L143E_K145T_Q179D, L1 Q124R_Q160K_T178R)
Kd [15]: 0.06 nM
change in median KD compared to wild type, -(log(KD design)-log(KD wt)) [16]: 0.39

D3H44 Fab heavy chain L124E_L143D_K145M (Kabat), C-terminal ABD2-His6 tag
H1L1:H1L2 normalized median ratio [17]: 17 of 100
H1L1:H1L2 normalized median ratio [18]: 83 of 100
H1L1:H1L2 normalized median scalar value ln(r1/f1) [18]: 1.59

H1L1 Fab heterodimer of LCCA sets 9801 and 9802 (D3H44 Fab, H1 Q179R, L1 Q124E_Q160E_T178E)
Kd [15]: 0.11 nM
change in median KD compared to wild type, -(log(KD design)-log(KD wt)) [16]: 0.16

D3H44 Fab heavy chain S186R, C-terminal ABD2-His6 tag
H2L2:H2L1 normalized median ratio [19]: 96 share of 100
H2L2:H2L1 normalized median ratio [20]: 17 share of 100
H2L2:H2L1 normalized median ratio [21]: 19 share of 100
H2L2:H2L1 normalized median ratio [22]: 81 share of 100
H2L2:H2L1 normalized median ratio [23]: 2 share of 100
H2L2:H2L1 normalized median ratio [24]: 4 share of 100
H2L2:H2L1 normalized median ratio [25]: 98 share of 100
H2L2:H2L1 normalized median ratio [26]: 83 share of 100
H2L2:H2L1 normalized median ratio [27]: 11 share of 100
H2L2:H2L1 normalized median ratio [28]: 14 share of 100
H2L2:H2L1 normalized median ratio [29]: 86 share of 100
H2L2:H2L1 normalized median ratio [30]: 89 share of 100

D3H44 Fab heavy chain L124A_Q179K, ABD2-His6 tagged
H1L1:H1L2 normalized median ratio [31]: 95%
H1L1:H1L2 normalized median scalar value ln(r1/f1) [31]: 2.9
H1L1:H1L2 normalized median ratio [32]: 5%

D3H44 Fab heavy chain S186R, ABD2-His6 tagged
H2L2:H2L1 normalized median ratio [33]: 93%
H2L2:H2L1 normalized median ratio [34]: 7%
H2L2:H2L1 normalized median ratio [35]: 94%
H2L2:H2L1 normalized median ratio [36]: 6%
H2L2:H2L1 normalized median ratio [37]: 87%
H2L2:H2L1 normalized median ratio [38]: 13%

D3H44 Fab heavy chain L124R_D146N_Q179K (Kabat), C-terminal ABD2-His6 tag
H2L2:H2L1 normalized median ratio [17]: 84 of 100
H2L2:H2L1 normalized median ratio [18]: 16 of 100

D3H44 Fab heterodimer, H: L143E_K145T_Q179E, L: Q124R_T178R (H1L1 Fab of LCCA sets 9663, 9666, 9667, 9671, 9675, 9679 and 9682)
Change in KD with respect to wild type (-(log(KD design) - log(KD wt))) [39]: -0.23
Kd [40]: 0.27 nM
Change in KD with respect to wild type (-(log(KD design) - log(KD wt))) [41]: -0.23
Kd [42]: 0.27 nM

D3H44 H1L1 Fab heterodimer of LCCA Set # 9657 (H1 L143E_K145T_Q179E; L1 Q124R_T178K)
Kd [1]: 0.19 nM
change in median KD compared to wild type, -(log(KD design)-log(KD wt)) [2]: -0.08
Kd [3]: 0.19 nM
change in median KD compared to wild type, -(log(KD design)-log(KD wt)) [4]: -0.08

H1L1 Fab heterodimer of LCCA set 9654 (D3H44 Fab, H1 L143E_K145T_Q179E, L1 Q124R_Q160K_T178R)
Kd [15]: 0.15 nM
change in median KD compared to wild type, -(log(KD design)-log(KD wt)) [16]: 0.02

D3H44 Fab heavy chain L124A_S186K, ABD2-His6 tagged
H1L1:H1L2 normalized median ratio [31]: 95%
H1L1:H1L2 normalized median scalar value ln(r1/f1) [31]: 2.98
H1L1:H1L2 normalized median ratio [32]: 5%

D3H44 H1L1 Fab heterodimer of LCCA Set # 9707 (H1 L143E_K145T_S188L; L1 Q124R_Q160K_T178R)
Kd [3]: 0.24 nM
change in median KD compared to wild type, -(log(KD design)-log(KD wt)) [4]: -0.19

D3H44 Fab heterodimer, H: L143E_K145T_Q179D, L: Q124R_Q160K_T178R (H1L1 Fab of LCCA set 9623)
Change in KD with respect to wild type (-(log(KD design) - log(KD wt))) [41]: 0.39
Kd [42]: 0.06 nM

D3H44 Fab heterodimer, H: L143E_K145T_Q179D, L: Q124R_T178K (H1L1 Fab of LCCA set 9629)
Change in KD with respect to wild type (-(log(KD design) - log(KD wt))) [41]: 0.12
Kd [42]: 0.12 nM
